Measured values reported in patent US12509709B2, “Methods for making L-glufosinate” (BASF SE, priority 2016, dated 2025).

Assays:
weeds = conditions: EP 0030424; cited from earlier work
[1] = Conversion of PPO to L-glufosinate with lysine as amine donor; format: biochemical; conditions: over 20 hours; 0.4 mg/mL gabT, 25 mM PPO, 75 mM L-Lysine, pH 8.0, 30° C.
Description: Lysine can be used as an amine donor for conversion of PPO to L-glufosinate with the use of an appropriate TA. PPO was converted to L-glufosinate in a reaction with the following components: • 0.4 mg/mL gabT (purified as in Example 3) • 25 mM PPO (pHed to 8 w/NaOH) • 0.2 mM pyridoxal phosphate • 75 mM L-Lysine dihydrochloride (pHed to 8 w/NaOH) • 100 mM Kphos buffer pH 8.0
The reaction was incubated at 30° C. for 20 hours with shaking (250 rpm). L-glufosinate was formed at a rate of 0.4 mM/hr over the 20 hours.

[2] = Conversion of PPO to L-glufosinate with isopropylamine as amine donor; format: biochemical; conditions: 0.25 mg/mL TA, 25 mM PPO, 250 mM isopropylamine, pH 8.0, 25 to 30° C.
Description: Isopropylamine can be used as an amine donor for conversion of PPO to L-glufosinate with the use of an appropriate TA. PPO was converted to L-glufosinate in a reaction with the following components: • 0.25 mg/mL TA encoded by SEQ ID NO: 1 • 25 mM PPO • 0.2 mM pyridoxal phosphate • 250 mM isopropylamine (pHed to 8 w/H3PO4) • 100 mM Kphos buffer pH 8.0
The reaction was incubated at 25 to 30° C. for 30 hours with gentle shaking (250 rpm). At 0 hours, the amount of L-glufosinate as measured by HPLC was 0 mM, at 20 hours it was 14 mM, and at 30 hours it was 18 mM.

CP(=O)(O)CCC(=O)C(=O)O [PPO, 2-oxo-4-(hydroxy(methyl)phosphinoyl)butyric acid]
herbicidal activity (weeds): can contribute herbicidal activity

B1: gabT: gabT transaminase from Escherichia coli (UniProt P22256; SEQ ID NO: 3) (protein, listed as Escherichia coli)
chain: MNSNKELMQRRSQAIPRGVGQIHPIFADRAENCRVWDVEGREYLDFAGGIAVLNTGHLHPKVVAAVEAQLKKLSHTCFQVLAYEPYLELCEIMNQKVPGDFAKKTLLVTTGSEAVENAVKIARAATKRSGTIAFSGAYHGRTHYTLALTGKVNPYSAGMGLMPGHVYRALYPCPLHGISEDDAIASIHRIFKNDAAPEDIAAIVIEPVQGEGGFYASSPAFMQRLRALCDEHGIMLIADEVQSGAGRTGTLFAMEQMGVAPDLTTFAKSIAGGFPLAGVTGRAEVMDAVAPGGLGGTYAGNPIACVAALEVLKVFEQENLLQKANDLGQKLKDGLLAIAEKHPEIGDVRGLGAMIAIELFEDGDHNKPDAKLTAEIVARARDKGLILLSCGPYYNVLRILVPLTIEDAQIRQGLEIISQCFDEAKQ
rate of L-glufosinate formation [1]: 0.4 mM/h

B2: TA encoded by SEQ ID NO: 1: transaminase with the amino acid sequence of SEQ ID NO: 1 (protein, listed as Sinorhizobium arboris)
chain: MNIAAQSWERREATSFFHTFTDLPSLKTDGPVIIDHGEGPYIIDTVGRRYFEGNSGLWNMTLGFSERRLSDAALKQYQEFPGYHTFFGRNSKPTVELAERMLKLAPAPMSRVFFTNSGSEANESIVKLLWMMWAAEGRPERRKLLTRKNAYHGATVMASALTGKDYVKAFGLPGPEIVTLDCPHAWRFALPGEGDDEFAARLAANLETRILQEGPETIAGMFAEPVMGAGGVIVPPATYFAKIQPVLQRYGIPLIADEVICGFGRTGSLWGTLAVGQQPDIIVASKSMSAGYFPMGAVMLSADIDKRATAASEVWEEFPHGFTTGGHPVGCAISLEAIRIITEEGVFENVKSVSETFQSGLRALADHPMIGEARGMGLMGALETVADKKTKQSFSGDLRIGERISKEARDRGFIIRPLGSSVVLAPPFISTHGQIEELLAVLKEVLDVVYGTVKGEVA
modifications: Sinorhizobium arboris sp. nov.
amount of L-glufosinate formed (HPLC) ([2]; at 20 hours): 14 mM | amount of L-glufosinate formed (HPLC) ([2]; at 30 hours): 18 mM
